Experimental data as given in patent US20220098266A1 (AKSTON BIOSCIENCES, published 2022).
Numbering of substitutions follows the chain as printed. Each block holds one binder with its values, some of them ahead of it.

Molecular target: T1, human insulin receptor on human IM-9 cells (human, UniProt P06213 28-1382)
T1 construct: whole, on cells; The natural receptor is an alpha2-beta2 tetramer processed from one precursor; also called IR; human IR
Experiment: flow cytometry competition with biotinylated RHI on IM-9 cells at 4 C
Method: Cultures of IM-9 cells were centrifuged at 250×g (˜1000 rpm) for 10 min to pellet the cells. Cells were washed once with HBSS or PBS buffer, resuspended in cold FACS staining medium (HBSS/2 mM EDTA/0.1% Na-azide+4% horse serum) to a concentration of 8×10^6 cells/mL and kept on ice or 4° C. until test solutions were made. The insulin-Fc protein was diluted in FACS buffer in 1:3 serial dilutions as 2× concentrations in 1.2 mL tubes (approx. 60 μL volume of each dilution), and the solutions were kept cold on ice until ready for pipetting.
Biotinylated-RHI was diluted in FACS staining medium to a concentration of 1.25 μg/mL. 40 μL of the serially diluted test compound and 8 μL of 1.25 μg/mL Biotin-RHI were added into each well of a V bottom microtiter plate, mixed by slow vortexing, and placed on ice. 40 μL of an IM-9 cell suspension (8×10^6 cells/mL) was then added to each well by multichannel pipette, mixed again gently and incubated on ice for 30 min to allow competitive binding on the insulin receptor on IM-9 cells. Cells were then washed twice with […], of ice-cold FACS wash buffer (HBSS/2 mM EDTA/0.1% Na-azide+0.5% horse serum) by centrifuging the V-bottom plate at 3000 rpm for 3 min and aspirating the supernatant. Cells were then resuspended in […], of FACS staining medium containing 1:100 diluted Streptavidin-PE (Life Technologies) for 20 min on ice. Cells were then washed once with 275 μL of ice-cold FACS buffer and finally fixed with 3% paraformaldehyde for 10 min at room temp. Cells were then washed once with 275 μL of ice-cold FACS buffer and resuspended in 250 μl of FACS buffer for analysis.
The V-bottom plates containing cells were then analyzed on a Guava 8-HT flow cytometer (Millipore). Biotinylated-RHI binding to insulin receptor was quantitated by the median fluorescence intensity (MFI) of the cells on the FACS FL-2 channel for each concentration of the test compound. Control wells were labeled only with biotinylated-RHI and were used to calculate the percent (%) inhibition resulting from each test compound concentration. The % inhibition by test compounds of biotinylated-RHI binding on IM-9 cells was plotted against log concentrations of the test compound, and the resulting IC50 values were calculated using GraphPad Prism (GraphPad Software, La Jolla, Calif.) for the test compounds.

T1 sequence (P06213 28-1382): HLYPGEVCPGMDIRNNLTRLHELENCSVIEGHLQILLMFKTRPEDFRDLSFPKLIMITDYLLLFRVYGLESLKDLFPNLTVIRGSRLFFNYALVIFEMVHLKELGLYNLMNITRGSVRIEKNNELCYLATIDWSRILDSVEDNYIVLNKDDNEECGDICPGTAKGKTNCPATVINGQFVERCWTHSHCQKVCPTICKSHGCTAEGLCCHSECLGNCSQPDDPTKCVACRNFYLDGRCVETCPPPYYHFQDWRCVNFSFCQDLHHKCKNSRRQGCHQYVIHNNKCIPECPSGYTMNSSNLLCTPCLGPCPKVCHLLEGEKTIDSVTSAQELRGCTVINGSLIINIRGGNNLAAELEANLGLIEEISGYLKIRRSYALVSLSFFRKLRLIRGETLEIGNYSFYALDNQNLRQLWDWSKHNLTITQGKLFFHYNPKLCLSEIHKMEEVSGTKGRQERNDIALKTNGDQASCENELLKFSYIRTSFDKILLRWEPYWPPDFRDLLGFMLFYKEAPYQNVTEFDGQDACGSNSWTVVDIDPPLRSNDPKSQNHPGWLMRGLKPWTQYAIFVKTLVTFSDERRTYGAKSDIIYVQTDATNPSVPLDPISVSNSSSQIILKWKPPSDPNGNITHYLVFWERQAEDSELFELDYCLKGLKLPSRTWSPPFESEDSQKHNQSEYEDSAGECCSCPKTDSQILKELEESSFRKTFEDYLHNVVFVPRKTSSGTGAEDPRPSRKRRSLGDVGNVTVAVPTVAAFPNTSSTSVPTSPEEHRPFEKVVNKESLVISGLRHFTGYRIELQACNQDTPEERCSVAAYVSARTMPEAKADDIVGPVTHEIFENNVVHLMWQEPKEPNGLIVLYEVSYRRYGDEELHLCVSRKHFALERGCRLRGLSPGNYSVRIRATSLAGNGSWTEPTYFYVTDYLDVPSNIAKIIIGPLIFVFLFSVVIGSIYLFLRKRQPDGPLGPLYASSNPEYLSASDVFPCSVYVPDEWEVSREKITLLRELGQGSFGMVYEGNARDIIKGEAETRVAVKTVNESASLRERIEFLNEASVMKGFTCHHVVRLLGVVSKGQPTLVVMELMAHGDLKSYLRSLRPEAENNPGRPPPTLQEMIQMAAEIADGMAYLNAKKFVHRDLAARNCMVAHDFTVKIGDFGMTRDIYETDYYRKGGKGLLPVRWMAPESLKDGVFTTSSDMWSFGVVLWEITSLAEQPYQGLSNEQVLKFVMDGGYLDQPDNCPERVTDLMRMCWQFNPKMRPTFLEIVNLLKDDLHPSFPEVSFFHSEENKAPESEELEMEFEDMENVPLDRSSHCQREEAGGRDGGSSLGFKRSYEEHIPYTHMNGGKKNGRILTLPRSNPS

- IC50: 0.028 µM
B1: insulin-Fc fusion protein of SEQ ID NO: 24 (insulin polypeptide SEQ ID NO: 4, linker SEQ ID NO: 8, canine IgGB Fc fragment SEQ ID NO: 11) (Fc fusion)
chain: FVNQHLCGSDLVEALALVCGERGFFYTDPTGGGPRRGIVEQCCHSICSLYQLENYCNGGGGAGGGGDCPKCPAPEMLGGPSVFIFPPKPKDTLLIARTPEVTCVVVDLDPEDPEVQISWFVDGKQMQTAKTQPREEQFNGTYRVVSVLPIGHQDWLKGKQFTCKVNNKALPSPIERTISKARGQAHQPSVYVLPPSREELSKNTVSLTCLIKDFFPPDIDVEWQSNGQQEPESKYRTTPPQLDEDGSYFLYSKLSVDKSRWQRGDTFICAVMHEALHNHYTQESLSHSPG
notes: Made in HEK293 cells; Disulfide-linked homodimer, 93% homodimer; Glycosylated at cNg-NB139

- IC50: 0.145 µM
B2: insulin-Fc fusion protein of SEQ ID NO: 27 (SEQ ID NO: 24 with the mutation cNg-NB139-S; canine IgGB Fc fragment SEQ ID NO: 14) (Fc fusion)
chain: B1 chain with N139S
notes: Made in HEK293 cells; Non-glycosylated homodimer, 98.3% homodimer; also called cNg-S

- IC50: 2.73 µM
B3: insulin-Fc fusion protein of SEQ ID NO: 20 (insulin polypeptide SEQ ID NO: 4, linker SEQ ID NO: 8, canine IgGA Fc fragment SEQ ID NO: 10) (Fc fusion)
chain: FVNQHLCGSDLVEALALVCGERGFFYTDPTGGGPRRGIVEQCCHSICSLYQLENYCNGGGGAGGGGRCTDTPPCPVPEPLGGPSVLIFPPKPKDILRITRTPEVTCVVLDLGREDPEVQISWFVDGKEVHTAKTQSREQQFNGTYRVVSVLPIEHQDWLTGKEFKCRVNHIDLPSPIERTISKARGRAHKPSVYVLPPSPKELSSSDTVSITCLIKDFYPPDIDVEWQSNGQQEPERKHRMTPPQLDEDGSYFLYSKLSVDKSRWQQGDPFTCAVMHETLQNHYTDLSLSHSPG

- IC50: 0.147 µM
B4: insulin-Fc fusion protein of SEQ ID NO: 29 (SEQ ID NO: 24 with des hinge D and the mutation cNg-NB138-K; canine IgGB Fc fragment SEQ ID NO: 15) (Fc fusion)
chain: FVNQHLCGSDLVEALALVCGERGFFYTDPTGGGPRRGIVEQCCHSICSLYQLENYCNGGGGAGGGGCPKCPAPEMLGGPSVFIFPPKPKDTLLIARTPEVTCVVVDLDPEDPEVQISWFVDGKQMQTAKTQPREEQFKGTYRVVSVLPIGHQDWLKGKQFTCKVNNKALPSPIERTISKARGQAHQPSVYVLPPSREELSKNTVSLTCLIKDFFPPDIDVEWQSNGQQEPESKYRTTPPQLDEDGSYFLYSKLSVDKSRWQRGDTFICAVMHEALHNHYTQESLSHSPG
notes: Made in HEK293 cells; Non-glycosylated homodimer, 98.1% homodimer; also called cNg-K
